This series concerns C[C@]12CC[C@@H]3c4ccc(O)cc4CC[C@H]3[C@@H]1CC[C@@H]2O[C@@H]1O[C@H](C(=O)O)[C@@H](O)[C@H](O)[C@H]1O. Nature of the series: TP_TRANSPORTER: uptake in membrane vesicle from MDR1-expressing Sf9 cells. The class given is functional, cell membranes.

In the case of “ATP-dependent translocase ABCB1 (Homo sapiens)”, the Km was found to be 62 µM.

As a reminder, the Km is the concentration of substrate that gives half-maximal velocity.
